Literature values in PMC6963985.

Biological target: CTLA-4 (Homo sapiens) (UniProt P16410)
Sequence of UniProt P16410 (P16410 36-161): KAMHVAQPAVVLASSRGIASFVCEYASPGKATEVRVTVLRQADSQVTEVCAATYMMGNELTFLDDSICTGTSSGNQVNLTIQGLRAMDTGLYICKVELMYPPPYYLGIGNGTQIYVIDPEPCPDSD

Kd: 5.9 nM
Substance: Tremelimumab
